Experiments:
PK2 mRNA in the PVN = details: compared with induction by 24 hours of food deprivation
Experimental: In situ hybridization was performed for detection. Animals were killed and brains were quickly dissected and stored at −80° C. until use. In situ hybridization was performed on coronal sections as described previously. The ^35S-hybridized slices were then coated with Kodak NTB2 autoradiographic emulsion and exposed for 1 month at 4° C.

[1] = Hot-plate pain test, morphine-induced analgesia; assay type: in vivo; details: subcutaneous injection, various concentrations, 55° C. hot plate, WT vs PK2^-/- mice
Text: FIGS. 6A-6C show impaired stress-induced analgesia in PK2^-/- mice. […] (a and b) The hot-plate latency was monitored before or after stress. Animals were stressed by 3-min of cold-water swimming (a) or 5-min of tail suspension (b). Wild-type (closed circles); PK2^-/- (open circles). The black blocks indicate the stressing period. (c) The hot-plate latency was also monitored after subcutaneous injection of various concentrations of morphine. There was no genotypic difference in morphine-induced analgesia; n=12-15 mice/genotype *, P<0.05; unpaired t test. Error bars, SEM.
Pain perception and stress-induced analgesia was measured. All the pain tests were carried out on a hot plate with a 55° C. surface, on which no basal difference was observed between WT and PK2^-/- mice. The cut-off time was set to 1 min to prevent tissue damage. Stress was induced by forced swimming for 3 min in 10° C. water, or suspending the tail for 5 minutes.

[2] = Sleep/wake recording after ICV infusion; assay type: in vivo; details: rats, 5 μg ICV at ZT 14, following 4 hours (ZT 14-18), vs CSF
Experimental: (§1) (a) Artificial cerebrospinal fluid (CSF) or 5 μg of PK2 was infused ICV to rats at ZT 14. Slow wave sleep (SWS), rapid eye movement sleep (REM) and active wake (AW) during the following 4 hours (ZT 14-18) were averaged and presented as mean±SEM; n=6 rats/group. (b) CSF or 5 μg of PK2 was infused ICV to rats at ZT 2 (day) or ZT 14 (night), the food intake in the following 24 hours were measured periodically and presented as mean±SEM. n=6-10 rats/group. (c) CSF or 4 μg of PK2 was infused ICV into mice. Anxiety-like behavior was monitored with a light-dark box assay 1 hour after infusion. n=12 mice/group. (d) CSF or 4 μg of PK2 was infused ICV into mice. Immobility in a forced swimming test was measured 1 hour after infusion; n=12 mice/group. *, P<0.05; unpaired t test. Error bars, SEM.
Recording and analysis of sleep/wake was performed. The sleep/wake recording in rats was carried out as described in reference. Digital recording was visually scored as slow wave sleep (SWS), rapid eye movement sleep (REM) and active wake (AW). For the mice, electroencephalogram (EEG) and electromyogram (EMG) signals were recorded using a lightweight implant and cabling procedure as described. […] The signals were digitally filtered (EEG, 0.3-30 Hz; EMG, 2-100 Hz) and semi-automatically scored in 4 second epochs as wake, NREM, or REM sleep using SleepSign sleep scoring software (Kissei Comtec America, California). […]

[3] = Food intake after ICV infusion; assay type: in vivo; details: rats, 5 μg ICV at ZT 2 (day) or ZT 14 (night), following 24 hours, vs CSF
Experimental: as §1
Food intake was measured. Mice food intake measurement was performed using a Comprehensive Lab Animal Monitoring System (CLAMS, Columbus Instruments, Columbus, Ohio). Feeding data were collected every 10 min for each mouse over a period of 5 days. The daily food intake was the total food consumed during 24 hours. For rats, the food pellets in the food bin were measured manually every 4-8 hours after drug infusion. The food intake was the total amount of food loaded subtracted by the amount of food left.
Intracerebroventricular infusion was utilized. […]

[4] = Light-dark box assay (anxiety-like behavior) after ICV infusion; assay type: in vivo; details: mice, 4 μg ICV, 1 hour after infusion, vs CSF
Experimental: as §1
The light-dark box was divided into a lit compartment (30×20×25 cm, illumination 400 lux) and a dark compartment (15×20×25 cm) connected by a 4-cm tunnel. The experiment was started by placing the animal in the dark compartment.
Numbers of transitions, total time spent in the lit compartment, and latency until the first exit were recorded on video and quantified during 10 minutes.
(§2) Intracerebroventricular infusion was utilized. Rats with cannula fit to the lateral ventricle were purchased from Charles River laboratory. […]

[5] = Forced swimming test (depression-like behavior) after ICV infusion; assay type: in vivo; details: mice, 4 μg ICV, 1 hour after infusion, vs CSF
Experimental: as §1
The Porsolt forced swim test was utilized. Animals were placed individually in cylinders (height 25 cm, diameter 11 cm) filled with 8-cm-deep water (temperature 22±1° C.) for 6 minutes The total period of immobility during the 6 minutes was recorded. Immobility was defined as no volitional body or limb movement.
as §2

O=CC[C@@H](O)[C@H](O)[C@H](O)CO [2-DG, 2-Dexoyl-D-glucose]
induction of PK2 mRNA in the PVN (PK2 mRNA in the PVN): induction was mimicked

CN1CC[C@]23c4c5ccc(O)c4O[C@H]2[C@@H](O)C=C[C@H]3[C@H]1C5 [morphine]
morphine-induced analgesia (hot-plate latency) [1]: indistinguishable between WT and PK2^-/- mice

B1: PK2: regulatory peptide that activates two closely related G protein-coupled receptors (PKR1, PKR2) (protein, UniProt Q9HC23 28-129, looked up)
Prokineticin-2: AVITGACDKDSQCGGGMCCAVSIWVKSIRICTPMGKLGDSCHPLTRKNNFGNGRQERRKRKRSKRKKEVPFFGRRMHHTCPCLPGLACLRTSFNRFICLAQK
arousal level [2]: significantly increased arousal level
food intake [3]: circadian phase-independent suppression of food intake
general activity (total entries) [4]: without significant effect on general activity
time spent in the lit compartment [4]: significantly less time spent in the lit compartment
time spent on immobility [5]: significantly increased the time spent on immobility

From patent US20100286021A1, “Methods of Modulating Prokineticin 2 for Treatment of Stress Response and Anxiety-Related Disorders” (priority 2007, published 2010)
